The source of these data is publication doi:10.1101/410217 (bioRxiv, 2018).

This assay deals with T1, human parechovirus 3 (HPeV3) isolate A308/99 virion (Human parechovirus 3, isolate A308/99, strain).
T1 chain 1: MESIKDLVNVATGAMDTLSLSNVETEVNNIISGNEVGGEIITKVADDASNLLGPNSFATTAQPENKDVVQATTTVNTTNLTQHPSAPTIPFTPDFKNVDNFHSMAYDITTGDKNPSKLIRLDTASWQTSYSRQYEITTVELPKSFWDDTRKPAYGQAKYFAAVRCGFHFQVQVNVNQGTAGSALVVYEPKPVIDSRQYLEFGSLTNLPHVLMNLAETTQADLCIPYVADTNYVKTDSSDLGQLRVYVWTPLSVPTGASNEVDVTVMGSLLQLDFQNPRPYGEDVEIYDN
T1 chain 2: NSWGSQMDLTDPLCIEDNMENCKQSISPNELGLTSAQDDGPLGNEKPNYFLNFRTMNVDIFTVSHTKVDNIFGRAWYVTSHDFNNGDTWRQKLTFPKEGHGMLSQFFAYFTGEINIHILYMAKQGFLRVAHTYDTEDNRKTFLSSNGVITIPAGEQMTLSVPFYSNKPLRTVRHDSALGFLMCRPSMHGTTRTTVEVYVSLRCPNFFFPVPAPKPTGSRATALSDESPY
T1 chain 3: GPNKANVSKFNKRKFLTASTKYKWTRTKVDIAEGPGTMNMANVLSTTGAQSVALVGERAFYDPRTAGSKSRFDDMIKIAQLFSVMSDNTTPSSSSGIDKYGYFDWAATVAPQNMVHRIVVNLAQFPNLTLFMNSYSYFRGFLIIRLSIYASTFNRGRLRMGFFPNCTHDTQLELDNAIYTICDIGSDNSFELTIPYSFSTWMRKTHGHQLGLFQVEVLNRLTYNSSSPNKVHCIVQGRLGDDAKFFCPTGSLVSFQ
In words: cryo-EM structure.

B1: Fab fragment of human monoclonal antibody AT12-015 (Fab, V domains shown)
VH: EVQLLESGGGLVQPGGSLRLSCAASGFTFSSYAMSWVRQAPGKGLEWVSAISGGGDSRYYADSVKGRFTISRDNSKNTLYLQMNSLGAEDTALYYCAKRLGRVAEYYFDYWGQGTLVTVSP
VL: DIQMTQSPSTLSASVGDRVTITCRTSQSISNWLAWYQQKPGKAPKLLIYQASTLENGVPSRFTGSGSGTEFSLTISSLQPDDFATYYCQQYNNYMALTFGGGTKVEIK
Turning to B1, the stoichiometry N (usually the number of molecules, sites or subunits per partner or assembly) came out at 60 Fab per virion.
